# Source: US20050196402A1
# Target: FcRI on U937 cells (human) (UniProt P12314)
# Experiment: unlabeled protein competing with the same 125I-labeled protein for binding to IFN-γ-treated U937 cells
# Sequence of FcRI on U937 cells (human) (P12314 16-374): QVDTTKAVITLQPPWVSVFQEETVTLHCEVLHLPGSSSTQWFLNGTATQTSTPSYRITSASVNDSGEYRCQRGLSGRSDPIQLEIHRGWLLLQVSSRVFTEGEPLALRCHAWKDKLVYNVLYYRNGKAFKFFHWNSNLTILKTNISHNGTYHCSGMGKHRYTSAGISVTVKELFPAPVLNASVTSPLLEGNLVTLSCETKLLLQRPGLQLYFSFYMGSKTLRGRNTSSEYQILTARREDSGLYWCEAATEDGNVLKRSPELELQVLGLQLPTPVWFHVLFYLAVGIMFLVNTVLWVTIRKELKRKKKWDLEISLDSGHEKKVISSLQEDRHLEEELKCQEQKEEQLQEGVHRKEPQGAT
row,IC50,Substance
1,75 nM,human IgG1 (antibody)
2,70 nM,hCTLA4-IgG1 (from UniProt P16410 37-161) (Fc fusion)
